Assay results from publication PMC6032326, “Connexin43 Carboxyl-Terminal Domain Directly Interacts with β-Catenin” (International Journal of Molecular Sciences, 2018).
Several values for one entry are separate records, joined by “and”; a condition that tells them apart may be missing. Equal values may be shown once.

What was measured:
[1] = target: T1, Connexin43 carboxyl-terminal domain (V236–I382) (rat, UniProt P08050 236-382, 15N-labelled); assay: NMR titration; 15N-HSQC at 7 °C; 15N-labelled Cx43CT (WT, Y313D or Y265,313D) at constant 35 μM, unlabelled β-catenin, β-catenin CT or β-catenin ΔCT added up to 285 μM; 1x PBS pH 7.8, 2 mM dithiothreitol; KD from the fit of the decrease in signal intensity; details: both partners purified
T1 construct: Connexin43 (Cx43), rat, carboxyl-terminal domain, residues V236-I382; pGEX-6P-2 carries a PreScission site, so GST was probably cleaved (surmise); also called Cx43CT; Cx43CT WT; source: bacterial expression vector pGEX-6P-2, expressed and purified in 1x PBS as previously described

Cx43CT Y313D = target: T2, Cx43CT Y313D (rat, UniProt P08050 236-382, Y313D, 15N-labelled); assay: as above; details: both partners purified
T2 construct: Connexin43 (Cx43), rat, carboxyl-terminal domain, residues V236-I382, with the phosphomimetic Y313D; The mutation was put into 'the Cx43CT plasmid'; also called single phosphomimetic; source: bacterial expression vector pGEX-6P-2, expressed and purified in 1x PBS as previously described

B1: β-catenin carboxyl-terminal (CT) domain (S681–L781) (domain or fragment, human, UniProt P35222 681-781, looked up)
chain: SLFRTEPMAWNETADLGLDIGAQGEPLGYRQDDPSYRSFHSGGYGQDALGMDPMMEHEMGGHHPGADYPVDGLPDLGHAQDLMDGLPPGDSNQLAWFDTDL
notes: β-catenin, human, C-terminal domain, residues S681-L781; also called β-catenin CT; β-catenin CT domain
Kd [1]: 210 µM and 202 µM
Kd (Cx43CT Y313D): 341 µM
